Test results taken from patent US20220119506A1 (NOVOBIND LIVESTOCK THERAPEUTICS, published 2022).
Changes are numbered by the printed parent chain.

T1: PirB (Vibrio parahaemolyticus)
T1 construct: also called JHE-like toxin PirB-like
T1 chain: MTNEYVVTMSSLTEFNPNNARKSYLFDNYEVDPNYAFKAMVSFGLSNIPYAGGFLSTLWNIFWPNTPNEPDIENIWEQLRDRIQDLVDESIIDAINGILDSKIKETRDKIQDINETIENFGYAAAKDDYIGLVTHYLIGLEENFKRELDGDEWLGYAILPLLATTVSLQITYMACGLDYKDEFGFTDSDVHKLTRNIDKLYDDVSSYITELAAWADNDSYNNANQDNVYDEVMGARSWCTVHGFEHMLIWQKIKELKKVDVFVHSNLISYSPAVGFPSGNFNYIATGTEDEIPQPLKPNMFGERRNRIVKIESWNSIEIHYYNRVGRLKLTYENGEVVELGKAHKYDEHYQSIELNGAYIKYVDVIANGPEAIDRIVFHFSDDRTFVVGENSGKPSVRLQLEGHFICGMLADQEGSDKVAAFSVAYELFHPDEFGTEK

B1: NBX0862 (VHH)
VHH: QVQLQESGGGLVQPGGSLRLSCSASGNRFSSSYVLGWYRQAPGKQRELVATVTSGGLTHYGDSVKGRFTISRDNAKNTVYLQMNSLKPEDTAVYYCNARILLTNYWGQGTQVTVSS
notes: on phage in the phage ELISA
B2: NBX0859 (VHH)
VHH: QVQLQESGGGLVQPGGSLRLSCSASGNRFSSSYVMGWYRQGPGKQRELVATVTSGGMTHYGDSVKGRFTISRDNAKNTVYLHMNSLKPEDTGVYYCFARRLWDIHWGQGTQVTVSS
notes: on phage in the phage ELISA
B3: NBX0843 (VHH)
VHH: B1 VHH with L35M, W37Y, S54T, H59N, G61A
notes: on phage in the phage ELISA
B4: NBX0835 (VHH)
VHH: B1 VHH with L35M, Y60F, G61K, V114I
notes: on phage in the phage ELISA
B5: NBX0861 (VHH)
VHH: QVQLQESGGGLVQAGGSLRLSCVASGSISNSHVMGWYRQAPGKERELVATLTSGGLTHFGDSVKGRFTISRDNAKNTIYLQMNSLKVEDTAVYYCNARRLLTSMWGQGTQVTVSP
notes: on phage in the phage ELISA
B6: NBX0851 (VHH)
VHH: QVQLQQSGGGLVQPGGSLRLSCAASGRMFSGYVMGWYRQAPGKQRELVATITNGGLTNYADSVKGRFTISRDNAKNTVYLQMNSLKPDDTAVYYCNARRLWDIYWGQGTQVTVSS
notes: on phage in the phage ELISA
B7: NBX0857 (VHH)
VHH: B6 VHH with M28I, Y32H, A60G, I103T
notes: on phage in the phage ELISA
B8: NBX09006 (VHH)
VHH: QVQLQESGGGLVQPGGSLRLSCAASGSISGSYVMGWYRQAPGKQRELVATITSGGLTRYADSVKGRWTISRDNAKNTVYLQMNNLKLEDTAVYYCSARRIATTYWGQGTQVTVSS
notes: on phage in the phage ELISA
B9: NBX09002 (VHH)
VHH: QVQLQESGGGLVQAGESLRLSCADSGRTSSTYDMAWFRQAPGKEREFVAAISRDGGRLSYADSVKGRFTISRDNAKNTLSLQMNSLRPEDTAVYYCAAFSIRGGLRPSYKYWGQGTQVTVSS
notes: on phage in the phage ELISA
B10: NBX0614 (VHH)
VHH: QVQLQQSGGGLVQAGGSLRLSCAASGSSFRSNAIGWYRQFPGKSRELIAVITRSGSTQYADSVKGRFTASRDNAKNMIYLQMNNLKLEDTAVYYCHDETMKLISVKNDYWGQGSQVTVSS
notes: on phage in the phage ELISA
B11: NBX0627 (VHH)
VHH: B10 VHH with F40S, N84S, L87P, S104T, V105G, S114T
notes: on phage in the phage ELISA
B12: NBX09007 (VHH)
VHH: QVQLQESGGGLVQPGGSLRLSCAASGSISSSYVMGWYRQAPGKQRDLVATITNAGNIHYGDSVKGRFTISRDNAKNTVSLQMNSLKPEDTAVYYCNARALWRAYWGQGTQVTVSS
notes: on phage in the phage ELISA
B13: NBX0863 (VHH)
VHH: QVQLQQSGGGLAQAGGSLRLSCAASGRTFNWYTMAWFRQAPGKEREFVAAIRLGSTVYGDSVKARFTISRDNAKSTVSLQMNSLKPEDTALYYCAVGITGDGTIQGGPYQYWGQGTQVTVSS
notes: on phage in the phage ELISA
B14: NBX0404 (VHH)
VHH: QVQLQESGGGLVQAGDSLRLSCATSGRTFSRYTMGWFRQTPGKEREFVAAISWSGTYYTDSVKGRFTISVDNAKNTVYLQMNSLKPEDTAVYYCASGSRRLYYSSDIDYWGQGTQVTVSS
notes: on phage in the phage ELISA
B15: NBX0405 (VHH)
VHH: B14 VHH with V70R, A95V, S96V, D108N
notes: on phage in the phage ELISA
B16: NBX09005 (VHH)
VHH: QVQLQESGGGLVQAGGSLRLSCAASGLTFGSYAMGWFRQAPGKEREFVAAIMRYSSRTYYTDSVKGRFTISRDNAKNTVNLQMNNLEPEDTAIYYCAAAKRLSIVTLPRQYEFWGQGTQVTVSS
notes: on phage in the phage ELISA
B17: NBX09010 (VHH)
VHH: B16 VHH with E6Q, I104R, Q110E
notes: on phage in the phage ELISA
B18: NBX09009 (VHH)
VHH: B16 VHH with A50T, T91A, T106A
notes: on phage in the phage ELISA
B19: NBX0626 (VHH)
VHH: QVQLQQSGGGLVQAGGSLRLACAVSETTLATNAMAWYRQAQGKRREWVATISSVSSGGITNYSGSVKGRFTISRDNAKNTVFLQMNSLQPEDTAVYYCNGVRRGRSYWGQGTQVTVSS
notes: on phage in the phage ELISA
B20: NBX0858 (VHH)
VHH: QVQLQESGGGLVQAGGSLRLSCAASRRDFTTTTMAWYRQAPGKKRETVATVNTGGLTWYADFVKGRFTISRDDAVNTLLLQMDSLKPEDTAVYYCNAVLVRARGMWGQGTQVTVSS
notes: on phage in the phage ELISA
B21: NBX09001 (VHH)
VHH: QVQLQESGGGSVQPGGSLRLSCAASGSALSSNVLGWYRQAPGKQRELVATISSGGLTNYADSVKGRFTISRDNAKNTVYLQMNSLKPEDTAVYYCQSRRLFTVYWGQGTQVTVSS
notes: on phage in the phage ELISA
B22: NBX0850 (VHH)
VHH: QVQLQESGGGLVQAGGSLRLSCAASGSISASYVMGWYRQTPGKQRELVATTTSGGTTRYADSVRGRFTISRDNARNTVYLQMNSLKPDDTAVYYCNARRLFLNYWGQGTQVTVSS
notes: on phage in the phage ELISA
B23: NBX0827 (VHH)
VHH: QVQLQESGGGLVQAGGSLRLSCAASGSISSSFVMGWYRQAPGKQRELVATITSGGSTIYADSVKGRFTVSRDNAKNTVYLQMNSLKSEDTAVYYCHARRLWNTYWGQGTQVTVSS
notes: on phage in the phage ELISA
B24: NBX0854 (VHH)
VHH: QVQLQQSGGGLVQAGGSLRISCAASGSISSAYVMGWYRQAPGTQRELVATITSGGTTNYADSVKGRFTVSRDNAKNTVYLQMNSLKPDDTAVYYCNARRLWTTYWGQGTQVTVSS
notes: on phage in the phage ELISA
B25: NBX0831 (VHH)
VHH: B23 VHH with A23S, S27D, I28A, S29F, S31R, F32Y
notes: on phage in the phage ELISA
B26: NBX09003 (VHH)
VHH: QVQLQESGGGLVQPGGSLRLSCTASGSIFSLLNMGWYRQAPGKQRELVASITSRSYTNYADSVKGRFTISRDNTKNMVYLQMNSLKPEDTAVYYCNLNPADWGRLRNWGQGTQVTVSS
notes: on phage in the phage ELISA
B27: NBX09008 (VHH)
VHH: QVQLQESGGGLVQAGGSLRLSCSASGRTFSVRAMGWFRQAPGKERESVAAIHQNTRTTLYADSVKGRFAISRDGTKNTVYLQMNSLKPEDTAVYYCAASDDYGLQIKEVAYKYWGQGTQVTVAS
notes: on phage in the phage ELISA
B28: NBX0855 (VHH)
VHH: QVQLQESGGGLVQPGESLRLSCAASTSGFSSYVMAWYRQAPGKQRELVASMTTGGLTNYADSVKGRFTISRDNAKNTVYLQMNSLKPEDTAAYYCNARRLWNAYWGQGTQVTVSS
notes: on phage in the phage ELISA
B29: NBX09011 (VHH)
VHH: B28 VHH
notes: on phage in the phage ELISA
B30: NBX0640 (VHH)
VHH: QVQLQESGGGLVQPGGSLRLSCAASGSIFSGNVMGWYRQVPGKQRDLVATITGGGITRYADSVKGRFTISRDNAKNTVYLQMNSLKPEDTAVYYCHYRRIMQQYWGQGTQVTVSS
notes: on phage in the phage ELISA
B31: NBX0638 (VHH)
VHH: B30 VHH with P14A, H96N, Q107K, Q110L
notes: on phage in the phage ELISA
B32: NBX0864 (VHH)
VHH: QVQLQESGGGLVQPGGSLRLSCAASGIISSAYVMGWYRQAPGKQRELVATITSGGTTRYADSVKGRITISRDNAKNTVLLQMNSLKPEDTAVYYCNARILLTNYWGQGTQVTVSS
notes: on phage in the phage ELISA
B33: NBX0852 (VHH)
VHH: QVQLQESGGGLVQAGGSLRLSCEASGRTFSSYRVGWFRQAPGKGREFVAAISATGGTTYYGDSVKGRFTISRDNAENTVSLQMNSLEPEDTAVYYCAATKGIVNYRVAGTYDAWGQGTQVTVSS
notes: on phage in the phage ELISA
B34: NBX0865 (VHH)
VHH: QVQLQESGGGLVQAGGSLRLSCADSGRVFSTYVMGWYRQVPGKQRELVATITPGGLINYGDAVKGRFTISRDNAKNTVYLQMNSLKPADTAVYYCNARRLFAINWGGGTQVTVSS
notes: on phage in the phage ELISA

Biological target: T1, PirB
Assay: phage ELISA, antigen-coated wells

Binder | binding above PBS-coated wells [%]
B1 | ≥ 50
B2 | ≥ 50
B3 | ≥ 50
B4 | ≥ 50
B5 | ≥ 50
B6 | ≥ 50
B7 | ≥ 50
B8 | ≥ 50
B9 | ≥ 50
B10 | ≥ 50
B11 | ≥ 50
B12 | ≥ 50
B13 | ≥ 50
B14 | ≥ 50
B15 | ≥ 50
B16 | ≥ 50
B17 | ≥ 50

Binder | binding above PBS-coated wells [%]
B18 | ≥ 50
B19 | ≥ 50
B20 | ≥ 50
B21 | ≥ 50
B22 | ≥ 50
B23 | ≥ 50
B24 | ≥ 50
B25 | ≥ 50
B26 | ≥ 50
B27 | ≥ 50
B28 | ≥ 50
B29 | ≥ 50
B30 | ≥ 50
B31 | ≥ 50
B32 | ≥ 50
B33 | ≥ 50
B34 | ≥ 50
